Reference: paper doi:10.1101/2022.03.31.486524

How the values were obtained:
[1] = target: CelTOS double mutant Lys122Asp, Leu164Asp (Plasmodium vivax); test: SEC
[2] = target: Disulfide-locked CelTOS dimer (Ser55Cys, Ala123Cys) (Plasmodium vivax); test: cross-linking
[3] = target: CelTOS N-terminal truncation mutant (Gly51-Asp196) (Plasmodium vivax); test: SEC

For “CelTOS double mutant Lys122Asp, Leu164Asp (natural protein)”, the stoichiometry N [1] was 2.

In the case of “Disulfide-locked CelTOS dimer (Ser55Cys, Ala123Cys) (natural protein)”, the precursor abundance of cross-linked species [2] is reported as 70% and the stoichiometry N [2] is reported as 2.

“CelTOS N-terminal truncation mutant (Gly51-Asp196) (domain or fragment)” showed a stoichiometry N [3] of 2.
